Measured values: patent US20250312464A1 (CILOA, published 2025)

Molecular target: T1, Src-streptavidin-PP polypeptide
T1 construct: also called Src-strepta-PP; Src-Strepta-PP
Experiment: co-expression in HEK293T cells; EV loading, Western blot

B1: SBP-eGFP polypeptide (other)
chain: not shown
- binding result: binds
